Measured values reported in PMC7619190.

Legend:
[1] = target: human SRC SH2 domain (Gln147-Lys252) C188A (human) (UniProt P12931); assay: ITC; peptide (400 uM) titrated into SRC SH2 (40 uM) in the cell, 25 C, MicroCal PEAQ-ITC Automated; SH2 domain pretreated with 0.1 mM PV (oxidised)
[2] = target: human SRC SH2 domain (Gln147-Lys252) C188A (human) (UniProt P12931); assay: ITC; peptide (400 uM) titrated into SRC SH2 (40 uM) in the cell, 25 C, MicroCal PEAQ-ITC Automated; SH2 domain pretreated with 1 mM TCEP (reducing conditions)

fold lower affinity against reducing conditions [1]: 3.5 fold
fold increase in affinity against SH2 WT [2]: 5 fold
Substance: SRC C-terminal phosphopeptide (spanning pY530)
